pKi: −log10 of the molar value.
Columns and labels:
[1] = target: mu opioid receptor (MOR-1) (UniProt P42866); assay: radioligand binding
KOR-1 = KOR-1 (Homo sapiens, UniProt P41145); assay: ^125I-opioid saturation studies in KOR-1/CHO cells; format: binding; details: at the highest concentrations of radioligands used
KOR-1, sequence (P41145 whole entry, species assumed): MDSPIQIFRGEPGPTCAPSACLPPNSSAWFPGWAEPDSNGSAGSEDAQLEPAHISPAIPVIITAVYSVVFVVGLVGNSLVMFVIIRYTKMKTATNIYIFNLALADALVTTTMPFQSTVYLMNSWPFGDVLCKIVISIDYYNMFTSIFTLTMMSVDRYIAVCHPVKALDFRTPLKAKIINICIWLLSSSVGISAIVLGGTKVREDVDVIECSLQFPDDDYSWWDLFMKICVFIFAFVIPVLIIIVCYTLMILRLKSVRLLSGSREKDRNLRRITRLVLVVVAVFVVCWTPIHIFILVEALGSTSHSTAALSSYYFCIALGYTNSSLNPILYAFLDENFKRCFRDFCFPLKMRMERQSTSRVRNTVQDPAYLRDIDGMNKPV

mu opioid receptor (MOR-1), sequence (P42866 whole entry): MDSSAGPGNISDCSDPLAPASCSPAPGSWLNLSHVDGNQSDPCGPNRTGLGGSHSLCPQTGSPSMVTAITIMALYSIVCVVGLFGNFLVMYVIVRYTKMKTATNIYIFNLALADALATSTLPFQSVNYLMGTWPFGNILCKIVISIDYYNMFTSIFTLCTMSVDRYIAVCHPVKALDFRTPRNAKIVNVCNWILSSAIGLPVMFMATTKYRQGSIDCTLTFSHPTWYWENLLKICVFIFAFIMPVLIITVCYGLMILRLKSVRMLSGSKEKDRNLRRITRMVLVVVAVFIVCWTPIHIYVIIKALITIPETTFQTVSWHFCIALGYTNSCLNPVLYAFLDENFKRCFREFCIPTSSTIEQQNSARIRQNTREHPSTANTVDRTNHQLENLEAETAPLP

Compound	pKi [1]	Specific binding in KOR-1/CHO cells (KOR-1)
[-DAla^2,MePhe^4,Gly(ol)^5]enkephalin (peptide)	8.81	
CN1CC[C@]23c4c5ccc(O)c4O[C@H]2[C@H](NC(=O)c2cccc([125I])c2)CC[C@@]3(O)[C@H]1C5 [^125IBOxyA (20)]		No specific

From PMC3115495 (Bioorganic & medicinal chemistry letters, 2011)
